Assay [1] addresses rat α6/α3β4 nAChR (rat), P12392. As to the kind of experiment: cell-based or functional assay.
For assay [2], the target named is rat α6/α3β2β3 nAChR (rat), P12390. Put plainly: cell-based or functional assay.

Some results are limits rather than exact numbers.

GCCSDPPCRNKHPDLC (modifications not checked) [α-conotoxin TxIB/Txd4] yielded an IC50 (half-blocking dose) of ACh-gated current, Xenopus oocytes in assay [1] greater than 10000 nM. In assay [2], the IC50 (half-blocking dose) of ACh-gated current, Xenopus oocytes was 28.4 nM and the Ratio (IC50 of TxIB(G) / IC50 of TxIB) turned out to be 1.

In assay [1], GCCSDPPCRNKHPDLCG (modifications not checked) [α-conotoxin TxIB/Txd4(G)] gave an IC50 (half-blocking dose) of ACh-gated current, Xenopus oocytes greater than 10000 nM. Besides, in assay [2], the IC50 (half-blocking dose) of ACh-gated current, Xenopus oocytes amounted to 247 nM and the Ratio (IC50 of TxIB(G) / IC50 of TxIB) was found to be 8.7.

Values taken from US20150299276A1.
